The source of these data is article PMC4775417 (Structure (London, England : 1993), 2016).

This test addresses Met1-linked tri-ubiquitin chain (UniProt P0CG48 1-76; P0CG48 1-76; P0CG48 1-76). Briefly: SPR. (SPR reads the build-up and loss of mass on a sensor chip optically.)

Sequence of Met1-linked tri-ubiquitin chain (P0CG48 1-228, one chain of several): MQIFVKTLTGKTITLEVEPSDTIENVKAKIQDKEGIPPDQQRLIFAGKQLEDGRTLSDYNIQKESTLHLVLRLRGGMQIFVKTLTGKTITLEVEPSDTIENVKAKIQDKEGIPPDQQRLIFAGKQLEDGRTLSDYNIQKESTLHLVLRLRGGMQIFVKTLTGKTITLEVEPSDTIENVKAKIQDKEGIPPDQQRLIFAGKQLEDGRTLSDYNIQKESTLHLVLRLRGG

B1: His-tagged AIRAPL tUIM (residues 188-240), wild type (domain or fragment, mouse, UniProt Q91X58 188-240, looked up)
chain: PVIALQNGLSEDEALQRALELSLAEAKPQVLSSQEEDDLALAQALSASEAEYQ
Consider B1, for which the binding result is “binds”.
